Measurements reported in US20250188188A1.

What was measured:
[1] = target: recombinant human ProC1s with Arg437 mutated to glutamine (hProC1s_RQ), C-terminal spacer and 10 histidines (human); assay: SPR
[2] = target: active human C1s purified from human serum (CompTech, Tyler, TX, catalog number A104) (human) (UniProt P09871); assay: SPR
active human C1s purified from human serum (CompTech, Tyler, TX, catalog number A104) (human), sequence (P09871 16-437, chain 1 of 2): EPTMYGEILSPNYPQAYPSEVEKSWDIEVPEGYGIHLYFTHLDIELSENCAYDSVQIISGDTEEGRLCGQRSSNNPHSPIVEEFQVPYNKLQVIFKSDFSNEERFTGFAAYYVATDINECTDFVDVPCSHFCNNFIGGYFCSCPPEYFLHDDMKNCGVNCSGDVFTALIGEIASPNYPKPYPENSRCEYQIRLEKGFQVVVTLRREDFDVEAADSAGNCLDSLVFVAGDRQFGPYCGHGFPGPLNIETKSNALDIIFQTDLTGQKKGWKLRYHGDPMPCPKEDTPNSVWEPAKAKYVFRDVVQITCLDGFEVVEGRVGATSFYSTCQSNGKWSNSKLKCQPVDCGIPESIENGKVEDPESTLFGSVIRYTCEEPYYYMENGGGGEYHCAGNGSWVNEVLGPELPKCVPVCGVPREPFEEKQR
active human C1s purified from human serum (CompTech, Tyler, TX, catalog number A104) (human), sequence (P09871 438-688, chain 2 of 2): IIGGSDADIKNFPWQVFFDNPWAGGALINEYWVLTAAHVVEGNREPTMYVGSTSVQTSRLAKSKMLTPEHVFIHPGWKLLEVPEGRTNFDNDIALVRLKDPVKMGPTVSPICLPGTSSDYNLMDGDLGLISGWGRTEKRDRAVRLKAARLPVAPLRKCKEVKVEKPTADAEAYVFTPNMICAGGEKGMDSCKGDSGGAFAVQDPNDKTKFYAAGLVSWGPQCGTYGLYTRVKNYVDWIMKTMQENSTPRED

recombinant human ProC1s with Arg437 mutated to glutamine (hProC1s_RQ), C-terminal spacer and 10 histidines (human), sequence (chain, as listed by the source limits assumed, change not shown, form in doubt): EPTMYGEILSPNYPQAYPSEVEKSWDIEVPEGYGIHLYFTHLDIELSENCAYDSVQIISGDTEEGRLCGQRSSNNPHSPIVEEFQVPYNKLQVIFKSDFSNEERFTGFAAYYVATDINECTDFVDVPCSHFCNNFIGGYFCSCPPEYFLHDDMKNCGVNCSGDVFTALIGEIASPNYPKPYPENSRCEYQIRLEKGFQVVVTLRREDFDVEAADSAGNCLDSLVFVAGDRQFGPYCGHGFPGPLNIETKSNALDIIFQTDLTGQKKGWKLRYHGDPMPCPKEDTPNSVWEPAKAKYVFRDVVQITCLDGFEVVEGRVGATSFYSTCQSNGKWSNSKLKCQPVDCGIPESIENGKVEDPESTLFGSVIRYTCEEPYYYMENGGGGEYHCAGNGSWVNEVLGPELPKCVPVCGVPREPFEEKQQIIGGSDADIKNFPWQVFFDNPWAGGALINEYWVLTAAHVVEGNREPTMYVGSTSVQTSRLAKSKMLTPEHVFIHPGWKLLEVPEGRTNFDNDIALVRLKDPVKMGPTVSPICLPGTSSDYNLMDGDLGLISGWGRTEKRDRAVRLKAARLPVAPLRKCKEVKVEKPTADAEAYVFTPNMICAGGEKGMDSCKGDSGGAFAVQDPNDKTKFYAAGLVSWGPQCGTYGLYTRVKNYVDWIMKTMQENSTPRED

- Kd [1]: 0.4 nM
- Kd [2]: 0.25 nM
Substance: recombinant sutimlimab/BIVV009/TNT009 (antibody)
